Assay results taken from patent US20220403048A1 (CANCER RESEARCH TECHNOLOGY, published 2022).
Residue numbers refer to the chain shown, from its start.

T1: recombinant human trimeric ARG2 enzyme (construct not given) (human, UniProt P78540 23-354)
T1 sequence (looked up): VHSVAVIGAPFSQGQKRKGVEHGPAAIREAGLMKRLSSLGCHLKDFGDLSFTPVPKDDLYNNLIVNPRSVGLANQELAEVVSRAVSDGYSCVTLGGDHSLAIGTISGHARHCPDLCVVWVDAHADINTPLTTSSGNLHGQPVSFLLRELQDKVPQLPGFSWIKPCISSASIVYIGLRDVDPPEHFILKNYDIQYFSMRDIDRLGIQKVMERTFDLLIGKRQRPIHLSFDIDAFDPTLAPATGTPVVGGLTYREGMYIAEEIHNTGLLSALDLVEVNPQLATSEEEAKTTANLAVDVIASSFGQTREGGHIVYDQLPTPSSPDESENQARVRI

T2: biotinylated recombinant cynomolgus monkey trimeric ARG2 enzyme (Avi-cynoARG2-His10) (cynomolgus monkey, UniProt P78540 23-354 (human entry), biotinylated)
T2 construct: also called cynomolgus ARG2
T2 chain: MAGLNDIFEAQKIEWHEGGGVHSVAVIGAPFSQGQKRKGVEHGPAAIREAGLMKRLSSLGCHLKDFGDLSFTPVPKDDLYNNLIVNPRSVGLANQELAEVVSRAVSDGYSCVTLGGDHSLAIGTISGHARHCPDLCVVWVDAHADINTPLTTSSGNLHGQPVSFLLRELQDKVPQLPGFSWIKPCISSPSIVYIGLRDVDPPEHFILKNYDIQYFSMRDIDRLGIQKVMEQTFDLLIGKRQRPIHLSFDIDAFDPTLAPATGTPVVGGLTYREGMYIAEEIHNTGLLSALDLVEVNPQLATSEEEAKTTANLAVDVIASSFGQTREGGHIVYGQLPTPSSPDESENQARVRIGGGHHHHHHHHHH

T3: biotinylated recombinant human trimeric ARG2 enzyme (Avi-huARG2-His10) (human, UniProt P78540 23-354, biotinylated)
T3 construct: also called avi-Arg2-His10; bio-ARG2
T3 chain: T2 chain with P189A, Q231R, E273H, R325K, G333D

T4: biotinylated recombinant human trimeric ARG1 enzyme (Avi-huARG1-His10) (human, UniProt P05089 1-322, biotinylated in HTRF and streptavidin BLI assays)
T4 construct: also called Human ARG1; recombinant ARG1
T4 sequence: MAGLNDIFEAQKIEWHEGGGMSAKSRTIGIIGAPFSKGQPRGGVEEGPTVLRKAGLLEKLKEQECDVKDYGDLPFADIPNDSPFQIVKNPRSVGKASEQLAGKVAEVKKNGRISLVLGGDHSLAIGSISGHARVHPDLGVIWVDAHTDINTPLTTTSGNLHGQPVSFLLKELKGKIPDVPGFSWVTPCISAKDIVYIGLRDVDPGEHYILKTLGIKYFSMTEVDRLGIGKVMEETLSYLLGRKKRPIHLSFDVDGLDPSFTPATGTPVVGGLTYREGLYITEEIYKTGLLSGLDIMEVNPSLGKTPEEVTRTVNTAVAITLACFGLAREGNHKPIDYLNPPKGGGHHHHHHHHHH

B1: C0020187 scFv (scFv, V domains shown)
VH: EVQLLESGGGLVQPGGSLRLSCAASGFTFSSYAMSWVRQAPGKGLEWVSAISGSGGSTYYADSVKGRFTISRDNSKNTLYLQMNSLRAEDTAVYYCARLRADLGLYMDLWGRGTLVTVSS
VL: QSVLTQPPSVSAAPGQKVTISCSGSSSNIGNHYVSWYQQLPGTAPKLLIYDNSERPSGIPDRFSGSKSGTSATLGITGLQTGDEADYYCGTWDSSLSALVFGGGTKLTVL
notes: c-myc tagged scFv; also called parent C0020187 scFv
B2: C0020187 Fab (Fab, V domains shown)
VH: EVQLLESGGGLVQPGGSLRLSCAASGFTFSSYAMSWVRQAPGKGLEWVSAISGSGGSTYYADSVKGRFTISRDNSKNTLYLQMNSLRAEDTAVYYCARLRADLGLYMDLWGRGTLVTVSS
VL: B1 VL
notes: Human Fab (CH1 and part of the hinge; light chain constant domain); also called Fab of C0020187

Columns and labels:
[1] = biological target: T1, recombinant human trimeric ARG2 enzyme …; test: cell-based or functional assay
[2] = biological target: T2, biotinylated recombinant cynomolgus …; test: HTRF direct binding assay, biotinylated recombinant cynomolgus trimeric ARG2, streptavidin cryptate and anti-c-myc-XL665, Delta F %
[3] = biological target: T3, biotinylated recombinant human trimeric …; test: HTRF direct binding assay, biotinylated recombinant human trimeric ARG2, streptavidin cryptate and anti-c-myc-XL665, % Delta F
Experimental: In this assay, binding of unpurified scFv to recombinant human trimeric ARG2 enzyme was assessed by measuring the fluorescence resonance energy transfer (FRET) between the c-myc tagged scFv and the biotinylated enzyme using streptavidin cryptate and anti-c-myc-XL665 detection reagents (CisBio International, France; cat: 610SAKLB and 61 MYCXLB respectively). Selection outputs were screened as unpurified bacterial periplasmic extracts containing scFv, prepared in 200 mM tris buffer pH 7.4, 0.5 mM EDTA and 0.5 M sucrose. 5 μl of unpurified scFv samples were added to a Greiner® 384 well assay plate (Greiner Bio-one, UK; cat: 784076). This was followed by the addition of 5 μl of 12 nM recombinant human trimeric ARG2 enzyme, 5 μl of 6.67 nM streptavidin cryptate and 5 μl 40 nM anti-c-myc-XL665. […] Assay plates were incubated overnight at 4° C. prior to reading time resolved fluorescence on a Pherastar plate reader ([…]) using an excitation wavelength of 320 nm and measuring the emission at 620 nm and 665 nm (100 flashes).
The ARG2 binding profile of each purified scFv was determined by testing a dilution series of the purified scFv in the HTRF™ assay described in section 1.4, substituting the unpurified scFv periplasmic preparation with the purified scFv. […]

[4] = biological target: T4, biotinylated recombinant human trimeric …; test: HTRF direct binding assay, biotinylated recombinant human trimeric ARG1
[5] = biological target: T3, biotinylated recombinant human trimeric …; test: HTRF epitope competition, scFv titrated, competitor C0020187 IgG, on biotinylated human trimeric ARG2
[6] = biological target: T3, biotinylated recombinant human trimeric …; test: BLI (OctetRED), biotinylated ARG on streptavidin tip, Fab as analyte, 1:1 fit
Experimental: (§1) An Octet Kinetics Buffer (PBS containing 0.01% BSA and 0.002% Tween20) is typically used as the diluent buffer for the analyte samples and as the flow buffer during the dissociation phase. The experimental data is recorded over time as shift in interference pattern (nm) over time, which is directly proportional to the optical thickness at the biosensor tip, which in turn is an approximate measure of the mass of analyte bound. The proprietary Octet Data Analysis software package can then be used to process data and fit binding models to the data sets. Returned association (kₐ, M⁻¹ s⁻¹) and dissociation (kd, s⁻¹) rate constants allow calculation of dissociation (KD, M) affinity constants.
(§2) The affinity of binding between the Fab of C0020187 and human ARG2, cynomolgus ARG2 and human ARG1 was estimated using assays in which the biotinylated ARG antigen was captured on a streptavidin sensor tip. A fresh sensor tip was used for each measurement and no regeneration was used. A series of dilutions of the C0020187 Fab (3.25-240 nM) were individually placed in contact with the ligand surface for a sufficient amount of time to observe sensorgrams that could be fitted to an appropriate binding model with confidence (typically 5 minutes), followed by an appropriate length of dissociation time (typically 10 minutes). Blank reference (0 nM Fab) data were subtracted from each dataset to reduce the impact of any buffer artefacts or non-specific binding effects. An appropriate binding model was then fitted simultaneously to the data from each analyte titration using the Octet Evaluation software.
(§3) Example results for C0020187 are shown in Table 9, showing the association rate constants (kₐ), dissociation rate constants (kd) and dissociation constants (KD). These parameters were derived from a 1:1 binding fit to the data.

[7] = biological target: T2, biotinylated recombinant cynomolgus …; test: as above
Experimental: as §1, §2, §3

[8] = biological target: T4, biotinylated recombinant human trimeric …; test: BLI (OctetRED), biotinylated ARG1 on streptavidin tip
Experimental: as §2

Binder | Trimeric human ARG2 EIA IC50 [1] [nM] | EC50 (read off the curve) [2] [nM] | EC50 (read off the curve) [3] [nM] | binding result [4] | IC50 [5] [nM] | Kd [6] [nM] | koff [6] [s⁻¹] | kon [6] [M⁻¹ s⁻¹] | Kd [7] [nM] | koff [7] [s⁻¹] | kon [7] [M⁻¹ s⁻¹] | binding result [8]
B1 | 964 | ~10 | ~20 | no binding (tested: log M -6 (1e-6 M)) | 1580 |  |  |  |  |  |  | 
B2 |  |  |  |  |  | 8.35 | 0.000577 | 69200 | 6.26 | 0.000631 | 101000 | no binding (tested: 3.25-240 nM Fab)
